First the molecules themselves.
B1: Azoarcus group I ribozyme (parent)
chain: GUGCCUUGCGCCGGGAAACCACGCAAGGGAUGGUGUCAAAUUCGGCGAAACCUAAGCGCCCGCCCGGGCGUAUGGCAACGCCGAGCCAAGCUUCGGCGCCUGCGCCGAUGAAGGUGUAGAGACUAGACGGCACCCACCUAAGGCAAACGCUAUGGUGAAGGCAUAGUCCAGGGAGUGGCGAAAGUCACACAAACCGG

This note sets out measurements from the RNAGym collection of RNA variant scans (doi:10.1093/molbev/msab373).

The series covers variants of B1. Put plainly: reverse-splicing fitness (ratio to wild type); higher = more active; in vitro selection; Mg2+ level not given. Summed up:
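An in vitro group I ribozyme library with randomized positions was T7-transcribed and gel-purified. In triplicate, 10 pmol RNA in EPPS pH 7.5 was reacted with 50 pmoles of a 30-nt RNA substrate for 1 h at 37 °C across several added MgCl2 levels (1–48 mM), then stopped with EDTA. Products were reverse transcribed from a substrate-complementary primer, PCR-amplified and sequenced (HiSeq 4000). Fitness is a variant's read proportion after selection over that before, normalised to wild type.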
On to C82U A111C A120G A145G C169G, for which the reverse-splicing fitness was 0.00926.

Regarding C82A A111G A120G A145C C150A C169G U176A, the reverse-splicing fitness came to 0.027.

Regarding A111C A120C A145C C150G U176C, the reverse-splicing fitness came out at 0.0391.

C82A A111C A145U C150A C169G U176A: the reverse-splicing fitness came to 0.014.

Consider C82G A111G A120G C169A U176A, for which the reverse-splicing fitness amounted to 0.022.

Turning to A111U A120G A145U C169G U176A, the reverse-splicing fitness came out at 0.0309.

As for C82A A111U A120U A145G C150A U176A, the reverse-splicing fitness amounted to 0.00879.

For C82G A111G A120U A145C C169U U176C, the reverse-splicing fitness worked out at 0.00228.

Take C82A A111G A120C C169A U176C: the reverse-splicing fitness stood at 0.0223.

For C82A A111U A120C C150A C169A U176C, the reverse-splicing fitness was 0.0233.

Turning to C82A A111U A120G A145G C150A C169A U176A, the reverse-splicing fitness turned out to be 0.0191.

For the variant C82G A111U A145U C150G C169U, the reverse-splicing fitness is 0.00956.

Take C82G A111C A120C A145C C150G U176G: the reverse-splicing fitness was 0.00325.

For the variant A145G C150G C169A U176A, the reverse-splicing fitness turned out to be 0.0133.

Turning to C82U A120U A145U C150U C169A U176C, the reverse-splicing fitness came out at 0.00256.

Take C82G A111C A120U C150U C169A: the reverse-splicing fitness worked out at 0.00635.

Regarding C82G A111C A120C A145C C150A C169U U176C, the reverse-splicing fitness is 0.0123.

On to A120C A145U C150U C169U, for which the reverse-splicing fitness is 0.329.

As for C82A A120C A145G C150G C169U, the reverse-splicing fitness was 0.0111.

For the variant C82U A120C A145C C150A C169U U176A, the reverse-splicing fitness turned out to be 0.0146.

With A111G A145C C150U U176A, the reverse-splicing fitness was 0.456.

As to C82G A111C A120G A145U C150G, the reverse-splicing fitness stood at 0.00698.

C82A A111G A120C C150U U176G: the reverse-splicing fitness is 0.01.

Take C82A A120C C150U U176C: the reverse-splicing fitness is 0.0394.

In the case of C82A A111U A120U A145G C150A C169G U176G, the reverse-splicing fitness amounted to 0.003.

On to C82G A120U A145G C169A U176C, for which the reverse-splicing fitness is 0.00321.

For the variant C82U A145U C150U C169G U176G, the reverse-splicing fitness amounted to 0.00498.

Take A111C A120U C169A U176A: the reverse-splicing fitness is 0.00319.

For the variant C82G A111C A120G A145C C150G U176C, the reverse-splicing fitness worked out at 0.0129.

C82U A111C A120G A145C C150U C169G U176G: the reverse-splicing fitness was 0.00492.

As to C82G A111C A145C C150A C169G U176A, the reverse-splicing fitness came out at 0.0237.

Take A111C A120C A145G C150U C169G U176A: the reverse-splicing fitness stood at 0.0118.

Consider C82U A111C A120C A145C C169G U176G, for which the reverse-splicing fitness was determined as 0.00555.

Turning to C82A A111G A120C A145C C150U C169G U176A, the reverse-splicing fitness is 0.025.

Consider C82U A111U A120G A145U C150G C169U U176C, for which the reverse-splicing fitness is 0.0111.

For the variant A111U A120U A145G C169U U176A, the reverse-splicing fitness stood at 0.0114.

Turning to C82A A111C A120U A145C C150A C169A, the reverse-splicing fitness amounted to 0.00282.

Consider C82G A111U A120C A145U C150A C169A U176C, for which the reverse-splicing fitness worked out at 0.0144.

For the variant C82A A111U A120C A145U C169U U176C, the reverse-splicing fitness is 0.0156.

In the case of C82A A111C A120U A145G C150A C169A U176A, the reverse-splicing fitness was determined as 0.00894.

Consider C82G A111G A120C C169A U176A, for which the reverse-splicing fitness was 0.017.

As for A120U A145U C150U U176C, the reverse-splicing fitness came to 0.552.

C82G C150G U176C: the reverse-splicing fitness stood at 0.0287.

As for C82U A111C A120C C150G C169U U176C, the reverse-splicing fitness came to 0.0134.

On to A111C A120G C150G C169A U176A, for which the reverse-splicing fitness was 0.00971.

Turning to A111U C150G, the reverse-splicing fitness came out at 0.308.

On to C82U A111C A120U A145U C150G C169A, for which the reverse-splicing fitness worked out at 0.00391.

Take C82A A111C A120U C150A U176C: the reverse-splicing fitness is 0.00738.

As for A111C C150U C169U U176C, the reverse-splicing fitness was found to be 0.0245.

With C82A A111U A120U A145G C150U C169U U176G, the reverse-splicing fitness was 0.00286.

As to C82A A111U A120U A145G C150U C169U U176A, the reverse-splicing fitness is 0.00537.

A111G A120G A145G C150A C169U U176C: the reverse-splicing fitness amounted to 0.0305.

C82U A111C A120U A145U U176A: the reverse-splicing fitness came out at 0.00693.

On to C82U A111C A145C C150G C169A U176A, for which the reverse-splicing fitness turned out to be 0.00873.

Consider C82G A111U A120C A145G C150G C169G U176C, for which the reverse-splicing fitness was determined as 0.0139.

For the variant A111G A120U A145U C150U C169A, the reverse-splicing fitness worked out at 0.00473.

As to C82U A120G C150G, the reverse-splicing fitness was found to be 0.00711.

As for C82G A111C A120U A145U C150G C169G U176G, the reverse-splicing fitness turned out to be 0.00242.

For C82U A111G A120U A145G C150U C169U U176C, the reverse-splicing fitness was 0.00348.

With C82U A111G A120U A145U C150A C169U U176G, the reverse-splicing fitness came out at 0.00158.

For C82A A111G A145U C150U C169U U176G, the reverse-splicing fitness was determined as 0.00658.

C82A A111C A120U C150U: the reverse-splicing fitness amounted to 0.0167.

On to C82A A111U C150G C169G U176A, for which the reverse-splicing fitness was found to be 0.00782.

Take C82U A111G C150U U176C: the reverse-splicing fitness was determined as 0.146.

C82U A111C A120U C150A U176A: the reverse-splicing fitness was determined as 0.00441.

With C82A A111G A120G C150G C169U U176G, the reverse-splicing fitness was found to be 0.00657.

As for A120G A145C C150G C169G U176A, the reverse-splicing fitness turned out to be 0.0244.

For C82A C169A, the reverse-splicing fitness turned out to be 0.00967.

On to C82U A120C C150U C169G U176C, for which the reverse-splicing fitness is 0.0117.

C82A A111U A120G A145G C150A C169U U176C: the reverse-splicing fitness worked out at 0.0167.

In the case of C82U A120U A145U C169U U176C, the reverse-splicing fitness is 0.00358.

Take A111G A120G A145U U176A: the reverse-splicing fitness is 0.0829.

Regarding A111G A120U C150A C169G U176A, the reverse-splicing fitness is 0.00675.

As for A145C C150G C169A U176G, the reverse-splicing fitness is 0.00491.

Take C82A A111G A120U A145G C150G U176C: the reverse-splicing fitness was found to be 0.00835.

For the variant C82G A111C A120C C169A U176G, the reverse-splicing fitness turned out to be 0.0072.

Consider C82A A111C A120G A145U C150G U176C, for which the reverse-splicing fitness was 0.0147.

With C82U A111G A120G A145C C150A C169G U176G, the reverse-splicing fitness was determined as 0.00465.

Turning to C82A A120C C169U U176C, the reverse-splicing fitness was 0.0151.

For the variant C82G A120U A145C, the reverse-splicing fitness was found to be 0.204.

In the case of C82A A111G A120C A145C C150G C169A U176A, the reverse-splicing fitness worked out at 0.00906.

For the variant A111G A120U A145G U176A, the reverse-splicing fitness is 0.344.

As to C82A A111U A120U A145U C150A C169U U176A, the reverse-splicing fitness was 0.00317.

For C82A A111U A120G A145G C150G U176C, the reverse-splicing fitness was 0.0105.
